US20240092897A1 (SHANGHAI JMT BIO TECHNOLOGY, published 2024)

Key:
[1] = target: T1, Human Siglec-15, His Tag (human Siglec-15 full-length extracellular domain linked with His tag) (human, UniProt Q6ZMC9 20-263); assay: SPR Biacore, antibody captured by anti-human Fc on CM5, Siglec-15 protein as analyte
T1 construct: Bought from ACROBiosystems; also called Siglec-15 protein; SG5-H52H3
T1 sequence: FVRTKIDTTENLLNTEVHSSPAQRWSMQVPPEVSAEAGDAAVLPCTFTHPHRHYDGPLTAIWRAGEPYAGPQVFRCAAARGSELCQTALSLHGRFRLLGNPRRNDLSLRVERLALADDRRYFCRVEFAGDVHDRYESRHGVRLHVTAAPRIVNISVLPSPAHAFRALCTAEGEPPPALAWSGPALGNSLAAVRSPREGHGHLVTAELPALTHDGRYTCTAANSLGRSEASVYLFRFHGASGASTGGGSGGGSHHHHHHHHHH

[2] = target: T1, Human Siglec-15, His Tag (human …); assay: Octet BLI epitope binning, Siglec-15 His on HIS1K sensor; competitor 124B11F6
Description: (§1) Epitope binning assays were performed using the Octet RED96e (ForteBio) System for the antibodies tested. Human Siglec-15, His Tag (Cat. No. SG5-H52H3) (5 μg/mL) was captured by the HIS1K biosensor and bound to primary antibody (100 nM) for 180 s. Then, the Human Siglec-15, His Tag (antigen)-primary antibody was bound to secondary antibody (100 nM) on the biosensors for 90 s. Data analysis was performed using Octet RED96e (ForteBio) analysis software.

[3] = target: T1, Human Siglec-15, His Tag (human …); assay: Octet BLI epitope binning, Siglec-15 His on HIS1K sensor; competitor 75E1F2
Description: as §1

[4] = target: T1, Human Siglec-15, His Tag (human …); assay: Octet BLI epitope binning, Siglec-15 His on HIS1K sensor; competitor 174C11C9
Description: as §1

[5] = target: T1, Human Siglec-15, His Tag (human …); assay: Octet BLI epitope binning, Siglec-15 His on HIS1K sensor; competitor 255C12B10
Description: as §1

[6] = target: T2, Human Siglec-15 overexpressed on HEK293T cells (HEK293T-hu-S15) (human, UniProt Q6ZMC9 20-328); assay: flow cytometry on HEK293T-hu-S15 cells, detection with anti-human IgG (Fc specific)-FITC, average fluorescence intensity
T2 construct: whole, on cells; also called HEK293T-hu-S15 cell line
T2 sequence (looked up): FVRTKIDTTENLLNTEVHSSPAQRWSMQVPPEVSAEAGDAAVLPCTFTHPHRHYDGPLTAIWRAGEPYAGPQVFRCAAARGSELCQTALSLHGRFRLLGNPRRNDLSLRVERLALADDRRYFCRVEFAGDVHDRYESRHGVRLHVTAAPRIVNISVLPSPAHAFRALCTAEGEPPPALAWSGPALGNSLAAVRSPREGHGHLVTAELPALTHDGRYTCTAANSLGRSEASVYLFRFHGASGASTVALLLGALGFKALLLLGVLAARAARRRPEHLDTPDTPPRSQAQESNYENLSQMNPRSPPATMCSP
Description: HEK293T cell line overexpressing Siglec-15 (HEK293T-hu-S15) was purchased from KYinno Biotechnology Co., Ltd (Beijing, China) under Catalog #KC-1314. Purified anti-Siglec-15 chimeric antibodies were diluted at a gradient of 100 nM and incubated with HEK293T-hu-S15 cells at 4° C. for 30 min. Flow cytometry was performed after addition of anti-human IgG (Fc specific)-FITC (cat. #F9512) and incubation for 30 min.

[7] = target: T1, Human Siglec-15, His Tag (human …); assay: SPR Biacore 8K, antibody captured by anti-human Fc, Siglec-15 His as analyte
Description: Affinity analysis was performed using Biacore8K, and a CM5 chip immobilized with anti-human Fc antibody was used to capture the antibodies tested. The stock solutions of the antibodies to be tested were diluted to 5 μg/mL, and injected sequentially into the experimental channels at a flow rate of 10 μL/min at about 500 RU. The analyte was Human Siglec-15, His Tag (Cat. #SG5-H52H3), the diluted human Siglec-15 protein was injected sequentially into the experimental channels and the control channel at a flow rate of 30 μL/min and allowing for a binding time of 150 s and a dissociation time of 700 s. The KD value of each antibody was calculated using Biacore 8K analysis software.

[8] = target: T3, Cynomolgus Monkey Siglec-15 full-length extracellular domain linked with His tag (Cynomolgus Monkey); assay: ELISA, coated antigen
T3 construct: Bought from ACROBiosystems; also called SG5-052H6
T3 chain: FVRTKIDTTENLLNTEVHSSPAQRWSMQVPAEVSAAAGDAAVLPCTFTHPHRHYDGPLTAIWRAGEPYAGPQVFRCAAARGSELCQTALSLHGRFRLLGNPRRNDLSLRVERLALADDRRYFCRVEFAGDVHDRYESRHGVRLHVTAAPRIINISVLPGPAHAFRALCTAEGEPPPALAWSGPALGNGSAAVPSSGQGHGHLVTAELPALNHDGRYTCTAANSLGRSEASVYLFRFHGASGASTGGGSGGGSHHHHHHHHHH
Description: (§2) The variable regions from the antibodies produced by the hybridomas were combined with human IgG1 (N297A) constant regions to generate chimeric antibodies, named as 21F6C6, 75E1F2, 124B11F6, 174C11C9, and 255C12B10, respectively. Binding activity assays were performed on the chimeric antibodies using Siglec-15 proteins from different species, in which human, mouse and Cynomolgus Monkey Siglec-15 proteins were purchased from ACROBiosystems (Beijing, China). Antigen was coated at 0.5 μg/ml, and antibodies were diluted starting from 1 μg/ml and incubated with antigen. Horseradish peroxidase-labeled Anti-Human IgG antibody was used as the secondary antibody and OD₄₅₀ values were read after adding the substrate.

[9] = target: T1, Human Siglec-15, His Tag (human …); assay: ELISA, coated antigen
Description: as §2

| Binder | Kd [1] | koff [1] | kon [1] | further results |
| --- | --- | --- | --- | --- |
| 124B11F6-hH1L1 (antibody, IgG1, V domains shown, Humanized; hIgG1 heavy chain constant region, Lambda-C2 light chain constant region) VH: QVQLVQSGAEVKKPGASVKVSCKASVFNIKDYYMHWVRQAPGQGLEWIGRIDPEDDKTKYAPKFQGRATITADTSTNTAYLELSSLRSEDTAVYYCVRGWLGYIMDFWGQGTTVTVSS VL: QLVLTQSPSASFSLGASAKLTCTLSSQHSTYTIDWYQQQPEKGPRYVMELKEDGSHSTGDGIPDRFSGSSSGAERYLTISSIQSEDEADYICGVGATIKEQFVYVFGGGTKVTVL | 0.109 nM | 0.000127 s⁻¹ | 1.17e+06 M⁻¹ s⁻¹ | – |
| 174C11C9-hH2L2 (antibody, IgG1, V domains shown, Humanized; hIgG1, Kappa) VH: QVQLVQSGAEVKKPGASVKVSCKASGYIFTDYYMNWVRQAPGQGLEWIGVFNPYSGGISYNQKFKGRVTLTVDTSTSTAYMELSSLRSEDTAVYYCARDYYYLSSHGFYALDYWGQGTTVTVSS VL: DIQLTQSPSSLSASVGDRVTITCRASESVDSYGNSFIHWYQQKPGKAPKLLMYRASNLESGIPSRFSGSGSGTDFTLTISSLQPEDFATYYCQQSNEDPLTFGQGTKLEIK | 0.325 nM | 0.000447 s⁻¹ | 1.37e+06 M⁻¹ s⁻¹ | – |
| 21F6C6-hH2L3 (antibody, IgG1, V domains shown, Humanized; hIgG1, Kappa) VH: EVQLVESGGGLVKPGGSLRLSCAASGFTFSSYAMSWVRQAPGKGLEWVATISSGGSLIYYADSVTGRFTISRDNAKNTLYLQMNSLRAEDTAVYYCVRHGYYYGDSTLYYAMDYWGQGTTVTVSS VL: DIQLTQSPSSLSASVGDRVTITCRASQSVDYDGDSYMNWYQQKPGKAPKLLIYAASNLESGVPSRFSGSGSGTDFTLTISSLQPEDFATYYCQQSNEAPLTFGQGTKLEIK | 0.0724 nM | 0.000353 s⁻¹ | 4.87e+06 M⁻¹ s⁻¹ | – |
| 21F6C6-hH1L1 (antibody, IgG1, V domains shown, Humanized; hIgG1 heavy chain constant region, Kappa light chain constant region) VH: EVQLVESGGGLVKPGGSLRLSCAASGFTFSSYAMSWVRQAPGKGLEWVATISSGGSLIYYPDSVTGRFTISRDNAKSTLYLQMNSLRAEDTAVYYCVRHGYYYGDSTLYYAMDYWGQGTTVTVSS VL: DIQLTQSPSSLSASVGDRATITCRASQSVDYDGDSYMNWYQQKPGKAPKLLIYAASNLESGIPARFSGSGSGTDFTLTISSVQPEDFATYYCQQSNEAPLTFGQGTKLEIK | 0.0806 nM | 0.000341 s⁻¹ | 4.23e+06 M⁻¹ s⁻¹ | – |
| 21F6C6 chimeric antibody (antibody, human IgG1, V domains shown, also called 21F6C6-mHL) VH: EVMLVESGGGLVKPGGSLKLSCAASGFTFSSYAMSWVRQSPEKRLEWVATISSGGSLIYYPDSVTGRFTISRDNAKSTLYLQMSSLRSEDTAMYYCVRHGYYYGDSTLYYAMDYWGPGTSVTVSS VL: DIVLTQSPASLAVSLGQRATISCKASQSVDYDGDSYMNWYQQKPGQPPKLLIYAASNLESGIPARFSGSGSGTDFTLNIHPVEEEDAATYYCQQSNEAPLTFGAGTKLELK | 0.0684 nM | 0.000375 s⁻¹ | 5.49e+06 M⁻¹ s⁻¹ | cross-competition score [2]: 101%; cross-competition score [3]: 4.92%; cross-competition score [4]: 4.98%; cross-competition score [5]: 56.8%; EC50 [6]: 1.19 nM; Kd [7]: 0.0473 nM; koff [7]: 0.000187 s⁻¹; kon [7]: 3.95e+06 M⁻¹ s⁻¹; EC50 [8]: 6.61 ng/mL; EC50 [9]: 4.81 ng/mL |

The next lines start with results.

| Kd [1] | koff [1] | kon [1] | Binder | further results |
| --- | --- | --- | --- | --- |
| 0.202 nM | 0.000224 s⁻¹ | 1.11e+06 M⁻¹ s⁻¹ | 124B11F6-hH2L2 (antibody, IgG1, V domains shown, Humanized; hIgG1, Lambda) VH: QVQLVQSGAEVKKPGASVKVSCKASVFNIKDYYMHWVRQAPGQGLEWIGRIDPEDDKTKYAPKFQGRVTITADTSTSTAYLELSSLRSEDTAVYYCVRGWLGYIMDFWGQGTTVTVSS VL: QLVLTQSPSASASLGASVKLTCTLSSQHSTYTIDWYQQQPEKGPRYVMELKEDGSHSTGDGIPDRFSGSSSGAERYLTISSLQSEDEADYICGVGATIKEQFVYVFGGGTKVTVL | – |
| 0.614 nM | 0.000482 s⁻¹ | 785000 M⁻¹ s⁻¹ | 174C11C9-hH3L3 (antibody, IgG1, V domains shown, Humanized; hIgG1, Kappa) VH: QVQLVQSGAEVKKPGASVKVSCKASGYIFTDYYMNWVRQAPGQGLEWIGVFNPYSGGISYAQKFKGRVTLTVDTSTSTAYMELSSLRSEDTAVYYCARDYYYLSSHGFYALDYWGQGTTVTVSS VL: DIQLTQSPSSLSASVGDRVTITCRASESVDSYGNSFIHWYQQKPGKAPKLLMYRASNLESGVPSRFSGSGSGTDFTLTISSLQPEDFATYYCQQSNEDPLTFGQGTKLEIK | – |
| 0.0856 nM | 0.000414 s⁻¹ | 4.84e+06 M⁻¹ s⁻¹ | 21F6C6-hH2L4 (antibody, IgG1, V domains shown, Humanized; hIgG1, Kappa) VH: EVQLVESGGGLVKPGGSLRLSCAASGFTFSSYAMSWVRQAPGKGLEWVATISSGGSLIYYADSVTGRFTISRDNAKNTLYLQMNSLRAEDTAVYYCVRHGYYYGDSTLYYAMDYWGQGTTVTVSS VL: DIQMTQSPSSLSASVGDRVTITCRASQSVDYDGDSYMNWYQQKPGKAPKLLIYAASNLQSGVPSRFSGSGSGTDFTLTISSLQPEDFATYYCQQSNEAPLTFGQGTKLEIK | – |
| 0.0683 nM | 0.000314 s⁻¹ | 4.59e+06 M⁻¹ s⁻¹ | 21F6C6-hH2L2 (antibody, IgG1, V domains shown, Humanized; hIgG1, Kappa) VH: EVQLVESGGGLVKPGGSLRLSCAASGFTFSSYAMSWVRQAPGKGLEWVATISSGGSLIYYADSVTGRFTISRDNAKNTLYLQMNSLRAEDTAVYYCVRHGYYYGDSTLYYAMDYWGQGTTVTVSS VL: DIQLTQSPSSLSASVGDRATITCRASQSVDYDGDSYMNWYQQKPGKAPKLLIYAASNLESGVPSRFSGSGSGTDFTLTISSVQPEDFATYYCQQSNEAPLTFGQGTKLEIK | – |
| 0.114 nM | 0.000184 s⁻¹ | 1.61e+06 M⁻¹ s⁻¹ | 21F6C6-hH2L4V (antibody, IgG1, V domains shown, Humanized; hIgG1, Kappa) VH: EVQLVESGGGLVKPGGSLRLSCAASGFTFSSYAMSWVRQAPGKGLEWVATISSGGSLIYYADSVTGRFTISRDNAKNTLYLQMNSLRAEDTAVYYCVRHGYYYGDSTLYYAMDYWGQGTTVTVSS VL: DIQMTQSPSSLSASVGDRVTITCRASQSVDYEGDSYMNWYQQKPGKAPKLLIYAASNLQSGVPSRFSGSGSGTDFTLTISSLQPEDFATYYCQQSNEAPLTFGQGTKLEIK | – |
